In US20210340211A1 (UNIVERSITY OF COPENHAGEN, published 2021):
Values belong to the binder of their own block, whether it stands above or below them. Ends that are not written are not given here.

Tests used:
[1] = target: T1, human GIP receptor (human, UniProt P48546 22-466); assay: competition binding vs 125I-GIP(1-42), COS-7 cells transfected with human GIP receptor
T1 construct: whole, on cells; also called hGIPR
T1 sequence (looked up): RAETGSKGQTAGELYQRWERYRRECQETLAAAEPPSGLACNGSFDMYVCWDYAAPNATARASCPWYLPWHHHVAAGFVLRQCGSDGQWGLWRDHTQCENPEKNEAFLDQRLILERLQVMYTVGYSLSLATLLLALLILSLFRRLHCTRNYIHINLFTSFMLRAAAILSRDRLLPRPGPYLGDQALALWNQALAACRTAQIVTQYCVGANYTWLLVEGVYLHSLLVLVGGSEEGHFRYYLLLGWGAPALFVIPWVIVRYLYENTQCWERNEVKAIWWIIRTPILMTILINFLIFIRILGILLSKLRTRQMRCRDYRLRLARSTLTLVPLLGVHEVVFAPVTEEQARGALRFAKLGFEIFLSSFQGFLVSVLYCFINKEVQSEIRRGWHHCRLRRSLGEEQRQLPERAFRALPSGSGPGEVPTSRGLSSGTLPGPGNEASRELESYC
Experimental: (§1) Nonspecific binding was determined as the binding of radioligand to untransfected cells. All determinations were made in duplicates, and all experiments repeated at least three times. The samples were analyzed for radioactivity using a Wallac Wizard 1470 Gamma Counter (GMI Inc., Minnesota, USA). The number “n” refers to individual experiments with separate transfections although from same cell line.
(§2) Statistical analyses (unpaired t-tests) of two parameters were also performed with GraphPad Prism 6.0. […] Kd is the dissociation constant determined by homologous receptor binding.

[2] = target: T1, human GIP receptor; assay: cell-based or functional assay
[3] = target: T1, human GIP receptor; assay: cell-based or functional assay; remark: listed apart in the source
[4] = target: T1, human GIP receptor; assay: competition binding vs 125I-hGIP, COS-7 cells transfected with hGIPR
Experimental: COS-7 cells were seeded in clear 96-well plates the day after transfection using a number of cells/well that obtained 5-10% specific binding of the added radioactive ligand. […] After incubation, the cells were washed twice in ice-cold binding buffer and lysed using 200 mM NaOH with 1% SDS for 30 min. Nonspecific binding was determined as the binding of tracer to untransfected cells.

[5] = target: T1, human GIP receptor; assay: cell-based or functional assay; remark: listed apart in the source
[6] = target: T1, human GIP receptor; assay: competition binding vs 125I-GIP(1-30)NH2, COS-7 cells transfected with human GIP receptor
Experimental: as §1, §2

[7] = target: T1, human GIP receptor; assay: competition binding vs 125I-GIP(3-30)NH2, COS-7 cells transfected with human GIP receptor
Experimental: as §1, §2

[8] = target: T1, human GIP receptor; assay: homologous competition binding vs 125I-GIP(2-30)NH2, COS-7 cells transfected with human GIP receptor
Experimental: as §1

[9] = target: T1, human GIP receptor; assay: competition binding vs 125I-GIP(2-30)NH2, COS-7 cells transfected with human GIP receptor
Experimental: as §1, §2

[10] = target: T1, human GIP receptor; assay: homologous competition binding vs 125I-GIP(3-30)NH2, COS-7 cells transfected with human GIP receptor
Experimental: as §1

Ki [1]: 79 nM | fold change of GIP(1-30)NH2 affinity [1]: 89 fold | logIC [1]: -7.1 | IC50 (inhibition of GIP(1-42) induced cAMP accumulation) [2]: 133 nM | logIC50 (inhibition of GIP(1-42) induced cAMP accumulation) [2]: -6.88
B1: GIP(8-30)NH2 (peptide)
peptide: SDYSIAMDKIHQQDFVNWLLAQK-NH2
notes: also called human GIP(8-30)NH2; hGIP(8-30)

Ki (Schild plot, cAMP accumulation) [3]: 35 nM | IC50 [4]: 2 nM
Binder: EGTFISDYSIAMDKIAQQDFVNWLLAQK (Synthetic variant of hGIP(3-30)) [hGIP(3-30)H18A]

logIC [1]: -7.58
B5: GIP(7-30)NH2 (peptide)
peptide: ISDYSIAMDKIHQQDFVNWLLAQK-NH2
notes: also called human GIP(7-30)NH2; hGIP(7-30)

fold lower antagonistic potency than human GIP(3-30)NH2 (cAMP accumulation) [5]: 26 fold | fold shift in the dose-response curve of human GIP(1-42) by 1 µM antagonist [5]: 7.3 fold
Binder: EGTFISDYSIAMDKIHQQDFVNWLLAQKGKKNDWKHNITQ [human GIP(3-42)]

Ki (Schild plot, cAMP accumulation) [3]: 15 nM
Binder: EGTFISDYSIAMDAIAQQDFVNWLLAQK [hGIP(3-30)K16AH18A]

Ki [1]: 347 nM | fold change of GIP(1-30)NH2 affinity [1]: 391 fold | fold decrease in affinity compared to GIP(1-30)NH2 [1]: 347 fold | fold lower affinity compared to GIP(1-30)NH2 [1]: > 300 fold | logIC [1]: -6.46 | IC50 [9]: 340 nM | fold change GIP(1-30)NH2 [9]: 707 fold | log (IC50) [9]: -6.47 | IC50 [6]: 1060 nM | fold change GIP(1-30)NH2 [6]: 3500 fold | log (IC50) [6]: -5.97 | IC50 [7]: 370 nM | fold change GIP(1-30)NH2 [7]: 223 fold | log (IC50) [7]: -6.43 | IC50 (inhibition of GIP(1-42) induced cAMP accumulation) [2]: 342 nM | logIC50 (inhibition of GIP(1-42) induced cAMP accumulation) [2]: -6.47
B8: GIP(6-30)NH2 (peptide)
peptide: FISDYSIAMDKIHQQDFVNWLLAQK-NH2
notes: also called human GIP(6-30)NH2; hGIP(6-30)

Further lines, the binder ahead of its results:

B2: GIP(4-30)NH2 (peptide)
peptide: GTFISDYSIAMDKIHQQDFVNWLLAQK-NH2
notes: also called human GIP(4-30)NH2; hGIP4-30
Ki [1]: 21.5 nM | fold change of GIP(1-30)NH2 affinity [1]: 24 fold | logIC [1]: -7.67 | IC50 (inhibition of GIP(1-42) induced cAMP accumulation) [2]: 108 nM | logIC50 (inhibition of GIP(1-42) induced cAMP accumulation) [2]: -6.97

Binder: EGTFISDYSIAMDKIHQQDFVNWLLAQK (also called human GIP3-30) [hGIP(3-30)]
Ki (Schild plot, cAMP accumulation) [3]: 15 nM | IC50 [4]: 16 nM

Binder: EGTFISDYSIAMDKIKQQDFVNWLLAQK (Synthetic variant of hGIP(3-30)) [hGIP(3-30)H18K]
Ki (Schild plot, cAMP accumulation) [3]: 37 nM | IC50 [4]: 7.8 nM

Binder: EGTFISDYSIAMEKIAQQDFVNWLLAQK [hGIP(3-30)D15EH18A]
Ki (Schild plot, cAMP accumulation) [3]: 7.9 nM

B3: GIP(5-30)NH2 (peptide)
peptide: TFISDYSIAMDKIHQQDFVNWLLAQK-NH2
notes: also called human GIP(5-30)NH2; hGIP5-30
Ki [1]: 5.9 nM | fold change of GIP(1-30)NH2 affinity [1]: 6.6 fold | logIC [1]: -8.23 | IC50 (inhibition of GIP(1-42) induced cAMP accumulation) [2]: 11.9 nM | logIC50 (inhibition of GIP(1-42) induced cAMP accumulation) [2]: -7.92

B4: GIP(2-30)NH2 (peptide)
peptide: AEGTFISDYSIAMDKIHQQDFVNWLLAQK-NH2
notes: also called human GIP(2-30)NH2; hGIP(2-30)
Ki [1]: 14.3 nM | fold change of GIP(1-30)NH2 affinity [1]: 16 fold | logIC [1]: -7.85 | fold lower potency than GIP(1-30)NH2 (cAMP accumulation) [5]: > 3000 fold | log EC50 (cAMP accumulation) [5]: -8.43 | potency, EC50 (cAMP accumulation) [5]: 3.7 nM | IC50 [6]: 26 nM | fold change GIP(1-30)NH2 [6]: 84.3 fold | log (IC50) [6]: -7.59 | IC50 [7]: 7.7 nM | fold change GIP(1-30)NH2 [7]: 4.6 fold | log (IC50) [7]: -8.11 | IC50 (inhibition of GIP(1-42) induced cAMP accumulation) [2]: 21.7 nM | logIC50 (inhibition of GIP(1-42) induced cAMP accumulation) [2]: -7.66 | IC50 [8]: 2.7 nM | fold change GIP(1-30)NH2 [8]: 10.5 fold | log (IC50) [8]: -8.57

B6: GIP(9-30)NH2 (peptide)
peptide: DYSIAMDKIHQQDFVNWLLAQK-NH2
notes: also called human GIP(9-30)NH2; hGIP(9-30)
Ki [1]: 307 nM | fold change of GIP(1-30)NH2 affinity [1]: 345 fold | fold lower affinity compared to GIP(1-30)NH2 [1]: > 300 fold | logIC [1]: -6.51 | right-shift of antagonistic potency compared to GIP(3-30)NH2 [5]: 38 fold | IC50 (inhibition of GIP(1-42) induced cAMP accumulation) [2]: 450 nM | logIC50 (inhibition of GIP(1-42) induced cAMP accumulation) [2]: -6.35

B7: GIP(3-30)NH2 (peptide)
peptide: EGTFISDYSIAMDKIHQQDFVNWLLAQK-NH2
notes: also called human GIP(3-30)NH2; hGIP(3-30)NH2
Ki [1]: 2.3 nM | fold change of GIP(1-30)NH2 affinity [1]: 2.6 fold | fold decrease in affinity compared to GIP(1-30)NH2 [1]: 2.3 fold | logIC [1]: -8.63 | IC50 [9]: 0.76 nM | fold change GIP(1-30)NH2 [9]: 1.6 fold | log (IC50) [9]: -9.12 | fold shift in the dose-response curve of human GIP(1-42) by 1 µM antagonist [5]: 281 fold | IC50 [6]: 4.4 nM | fold change GIP(1-30)NH2 [6]: 14.5 fold | log (IC50) [6]: -8.35 | IC50 (inhibition of GIP(1-42) induced cAMP accumulation) [2]: 11.8 nM | logIC50 (inhibition of GIP(1-42) induced cAMP accumulation) [2]: -7.93 | IC50 [10]: 3.4 nM | fold change GIP(1-30)NH2 [10]: 2 fold | log (IC50) [10]: -8.47
